The labels stand for the following.
B1: RDE-4 (other)
chain: MDLTKLTFESVFGGSDVPMKPSRSEDNKTPRNRTDLEMFLKKTPLMVLEEAAKAVYQKTPTWGTVELPEGFEMTLILNEITVKGQATSKKAARQKAAVEYLRKVVEKGKHEIFFIPGTTKEEALSNIDQISDKAEELKRSTSDAVQDNDNDDSIPTSAEFPPGISPTENWVGKLQEKSQKSKLQAPIYEDSKNERTERFLVICTMCNQKTRGIRSKKKDAKNLAAWLMWKALEDGIESLESYDMVDVIENLEEAEHLLEIQDQASKIKDKHSALIDILSDKKRFSDYSMDFNVLSVSTMGIHQVLLEISFRRLVSPDPDDLEMGAEHTQTEEIMKATAEKEKLRKKNMPDSGPLVFAGHGSSAEEAKQCACKSAIIHFNTYDFTD
notes: Endogenous protein from C. elegans extract; also called T20G5.11
B2: DRH-2 (enzyme)
chain: MIVNLCNEHRDPLDDEYPPEQFFLSTFTIIFFDECHNTVKNSPYSNVMREYHYLKNMGNMPEGHSFPQIIGLTASLGTGDKKNCMQVRSYIAGLCANMDVKELSIVKDNLEELLDHNPFVTDQVSFCERSNDGPIEMFTKRLKQMMQEVEDLIRTTLKNEPTVKYEIPPTDKEHNRYENWISNQRNCVSLAGSRNKTLIIEVLDVLKDCFYALSYNINFNPEVALKKYLEKELGPERIRNFTDNMNLIWDNCHRELVGIGSAENPMIARTVQFILDQNEQTSDFRAIIFVRTKKEADFLNYVLNDRLHELGIKSDWMSGQKKSTASSADISASKQKQMEKLKMFADGENQILVSTSVAEEGLDIPECSLVIKYNYATNETAHVQRRGRARARNSKCVLITNSIALHVQESNNLAKENLMTETISLIQNSPGEFRQCVDEESNKVWPRIQREDTDKAQRIKEQINRNIVYKIVCMKCDTVLCTNKDIRSKNTQYIVCNPGFWSLVRRIPLPLEQRASNKFNSTGSIECLGERCGSKLGQLIDVNTVNLPCLKVKSILLLIESTNERILVKQWKNILDEHFTPTTLKQRDVQTMKDADYGRAPIEFEHHTANGEVINVIRQA
notes: Endogenous protein from C. elegans extract; also called C01B10.1; Dicer-Related Helicase

Holding throughout (test): found in two independent RDE-4 purifications, absent from controls, MudPIT (P = present)
The target in assay [1] is T1, EFT-2, EF-Tu family GTP binding protein (Caenorhabditis elegans, UniProt P29691 2-852).
T1 construct: Endogenous protein from C. elegans extract; also called F25H5.4; translation elongation factor 2

Another assay concerns the target T2, TBB-4 (Caenorhabditis elegans, UniProt P41937 1-444).
T2 construct: Endogenous protein from C. elegans extract; also called B0272.1; tubulin, Beta

The assay “RDE-4” deals with B1.

T2 sequence (P41937 whole entry): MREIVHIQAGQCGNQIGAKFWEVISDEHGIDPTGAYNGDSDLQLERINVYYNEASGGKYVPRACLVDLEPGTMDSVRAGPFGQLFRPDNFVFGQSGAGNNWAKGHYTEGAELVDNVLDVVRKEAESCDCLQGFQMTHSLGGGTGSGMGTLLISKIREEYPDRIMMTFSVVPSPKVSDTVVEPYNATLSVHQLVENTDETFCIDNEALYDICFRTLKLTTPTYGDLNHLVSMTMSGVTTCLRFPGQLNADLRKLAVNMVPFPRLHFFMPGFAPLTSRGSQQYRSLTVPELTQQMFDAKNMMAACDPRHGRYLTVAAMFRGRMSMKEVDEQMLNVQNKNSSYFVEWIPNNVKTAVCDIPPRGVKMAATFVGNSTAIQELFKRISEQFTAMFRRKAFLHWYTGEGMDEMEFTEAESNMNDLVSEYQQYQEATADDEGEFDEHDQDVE

Regarding B1, the binding result (in assay [1]; with TBB-4) was “binds” throughout. Regarding B2, in the assay with RDE-4, the binding result is on record as “binds”.
